{"source": "patent US20140302524A1", "binders": {"B1": {"name": "AB0023 (antibody, from another filing, V domains shown)", "VH": "QVQLQQSGAELVRPGTSVKVSCKASGYAFTYYLIEWVKQRPGQGLEWIGVINPGSGGTNYNEKFKGKATLTADKSSSTAYMQLSSLTSDDSAVYFCARNWMNFDYWGQGTTLTVSS", "VL": "DIVMTQAAPSVSVTPGESVSISCRSSKSLLHSNGNTYLYWFLQRPGQSPQFLIYRMSNLASGVPDRFSGSGSGTAFTLRISRVEAEDVGVYYCMQHLEYPYTFGGGTKLEIK"}}, "key": {"[1]": {"biological_target": "full-length human LOXL2 protein (human) (UniProt Q9Y4K0)", "sequence (Q9Y4K0 other isoform, or with tags, fused parts or gaps)": "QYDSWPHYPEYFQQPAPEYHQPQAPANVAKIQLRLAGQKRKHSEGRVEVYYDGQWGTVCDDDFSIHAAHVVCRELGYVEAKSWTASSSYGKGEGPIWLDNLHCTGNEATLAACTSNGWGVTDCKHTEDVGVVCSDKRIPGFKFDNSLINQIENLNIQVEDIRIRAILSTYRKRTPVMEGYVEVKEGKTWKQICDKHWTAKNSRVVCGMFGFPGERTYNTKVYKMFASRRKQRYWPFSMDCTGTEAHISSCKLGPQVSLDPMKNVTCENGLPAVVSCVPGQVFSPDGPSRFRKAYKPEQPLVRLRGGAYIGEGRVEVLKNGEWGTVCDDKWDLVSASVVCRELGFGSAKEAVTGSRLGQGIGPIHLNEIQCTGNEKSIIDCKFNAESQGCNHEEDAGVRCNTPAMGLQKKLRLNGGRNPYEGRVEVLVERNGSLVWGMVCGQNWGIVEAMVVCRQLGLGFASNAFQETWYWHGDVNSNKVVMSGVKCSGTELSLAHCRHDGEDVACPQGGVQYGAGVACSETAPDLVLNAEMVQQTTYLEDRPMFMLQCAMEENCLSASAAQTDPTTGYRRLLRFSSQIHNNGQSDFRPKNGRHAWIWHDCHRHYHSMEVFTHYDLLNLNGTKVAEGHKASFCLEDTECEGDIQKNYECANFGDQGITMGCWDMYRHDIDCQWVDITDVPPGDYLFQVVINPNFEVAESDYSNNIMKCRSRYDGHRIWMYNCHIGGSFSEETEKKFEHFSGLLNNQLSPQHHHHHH", "experiment": "cell-based or functional assay"}, "[2]": {"biological_target": "full-length human LOXL2 protein (human) (UniProt Q9Y4K0)", "experiment": "ELISA, LOXL2 coated"}}}
{"binder": "B1", "values": [{"measurement": "IC50′ (nM), inhibition of LOXL2 enzymatic activity (Amplex Red assay); substrate DAP, collagen", "setting": "[1]", "result": 62, "unit": "nM"}, {"measurement": "Kd", "setting": "[2]", "result": "< 1", "unit": "nM"}]}
